Measured values from the domain aggregation screens of Martell et al. (2025).

Assay: soluble fraction after stress (log2 fold change); higher = more stays soluble; pooled small domains, quantitative proteomics
Details: stress: 50 degC
Summary of the method: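 Pooled custom libraries of small protein domains were measured in a high-throughput format, with quantitative proteomics as the read-out. Each library was stressed at 50°C. Aggregation propensity is given as the base-two logarithm of the fold change in how much of each protein stays soluble after the stress. Higher values mean a larger share of the protein remains in solution.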

| Sequence | soluble fraction (log2) |
| --- | --- |
| HMVSGVMAQQAIAVLVQQEDKHAPLSDQALAERLQVQGIDISRRTVAKYRQLLQIPSAATRR | -0.419 |
| HMVSIGSQVAKRRRELRLTQQNLAEKMGVSFQAISSWEREEFLPDINKLQKLAAILNTKISYLLEE | -1.3 |
| HMVSINETAFIQIKNSSATEIKEKITALKLDELKNVTITADIRTNKLIVVGPKATINKIQELVIELDTES | 0.281 |
| HMVSKTEAMAVFIADKLQEGMVPANEILELYKGMQLSDRTIRNAKKQLGIVSIRKDGQWYWSL | -1.19 |
| HMVSLPSPLAGKVVSLTVQAGQEVKEGDEIMVLEAMKMNTQVHAPSSGRILALRVQPGDQVEEGQTLVTMG | 0.0826 |
| HMVSLSNQVFEKIEYDILSGKYKIGEIISEKRLSSELGVSRTPIREALGRLSEEGLVGDSPSGTVVLGI | -0.431 |
| HMVSRVTTPGVVGKTWQETKQILKQADLTVGSLTRDGKDVTPADGDLVTAQNPSAGQAIVRGSSVDLTFDK | 0.31 |
| HMVSSYTMAIQINGKLRATHDFSVDTSQEDIKKIIINLPAIQKYINGVEIKKFIIVPQKIVNIV | -2.52 |
| HMVSTEDEISDKLLLDFALEKLSENEKQIVKLRYYNSLTQSKTAEILNMTQVQVSRSEKKILAKLRGII | -0.267 |
| HMVSTGIMVVDGRGSVLQHNEAALRQLGVEVLTFESQVKEKLASEDFSVRETTAMLNGKKVRIIAFSDIR | -1.62 |
| HMVSVEELLSSLDPNEATVLKLLAERSSGVDELMERSGLDFSALSEAITNLELFGYIAREMDGVYSFS | -0.559 |
| HMVSVPDIGEKLPDFTGTPKRLLTPLLNKNDVNIIIKGDGWVVSQKPPAGTPVTKGMTIEFTL | -0.208 |
| HMVTDSGEIEKLVDEVIDNNPDQVQQFREGKQQVLSYLVGQAMKLSRGKANPNQVNQFLRDKL | 0.291 |
| HMVTDTGEIEAIIDRVISENPDSVSDFKNGKERALKFLMGQAMKESKGKANPQIVNELLLKKL | 0.264 |
| HMVTDVDELEKLIQKVLDSNSSQVDEYRQGKEKVFGFFVGAVMKLTKGQADPDVVNQLLKEKLSGRK | 0.195 |
| HMVTDVDYSTFLSQVEEGKVESVTIEDGEILFKGKDENGEARWYITGEMNDPNLVERLKDKVPSFNAPA | 0.0853 |

| Sequence | soluble fraction (log2) |
| --- | --- |
| HMVTIYQRIMLVLEDKQVSVNALSKLVDMSQTTLNTQLKGERTLSANVVAKVLVAYPDVSAEWLMRGVGTM | 0.362 |
| HMVTLYDGFLSELRKRIPRGAELTNTLVDMLYIEREAVYRRLRGEVPFTFIEVMTVSKELGISLDNLAQA | -1.23 |
| HMVTTADIILEFYSRNPNATLTQAAQHVARATGTTYSRQAISAQLKRLEVAGLVERNGHVTV | -0.393 |
| HMVTTLLIINVAGKVKNPGVYQLPPGSRVVDALEAAGQQLKGVDISDINLARVLVDGEQILIGSN | -1.86 |
| HMVTVQEGETLSAIAARSGVSVKDLVRANEIRNPDSIQEGQVLFVP | 0.0612 |
| HMVVADFQNYTVKPKENLYSLTKTSGLSQEELVALNPELKNGVQEGMVIKLPAAVKLMAQPE | 0.15 |
| HMVVLPGEVLRINVIQEGKEHGQGVGYMDDGTMVVIENGREFIGEYMEVNVTKVLQTAAGRMIFGRVD | -0.526 |
| HMVVLPPTEDAPEWAQVFDRLGRPESADGYKLPVPEGADPAFAKLASAKMHELGLSAKQGAALAAWWNEQA | 0.108 |
| HMVVMEIGANGSEVVKLQKRLNQLGYYTEHASGVYDVKTASAVNEFQRQNELNATGKADYTTLDMIYNQ | 0.02 |
| HMVVRRLPFGFSKRFGVLVVPGTSNPVELLYREDASMQSLLEARRVVAQPVAFKKTDVESFNAQLARAHEN | -1.23 |
| HMVVSDSAEIDKIVQDVIAANPKAIEDFKSGKTNVTGWLMGQVMKLSHGKANPKQATEILNKYLSK | 0.354 |
| HMVVTRVKAIDVVNIRKSDSETADKLGKAAVGDEFDLLEKKGNGWSKISYEGGEAYIKSEFLEPSE | 0.145 |
| HMVVVMEKNASSAEIEQVQERLRQAGFKIHLSQGVERTIIGAIGDRSQVDLGFLEALPGVEKVVPIMK | 0.0845 |
| HMVVYFGGPVMLERGIVLHTPDISTKGTINVSDDFALTAHKEILDNINKDTSSLQFKLAIGH | -0.895 |
| HMVWINIRDLSDLFSKSGKSENSKNILDLQTLKIEKLLGGGQINTPYTIKVKQATPSAIEKVKQAGGEVIL | -0.0218 |
